One may read the Kd as the constant that tells how readily two partners part at equilibrium.

12 substances from paper PMC7921663 can be followed below.

Common to all, as to conditions: FA: 50 mM NaCl, 50 mM Tris-HCl pH 8.0, 5 mM DTT, 5 mM MgCl2, room temp, 30 nM FAM substrate, EMSA: 10 mM NaCl, 0.2 mM EDTA, 5 mM b-mercaptoethanol, 0.1% NP-40 …
(In general: A gel shift assay detects complexes by their altered migration in electrophoresis.)

Series [1] relates to PARP1 (human). In words: fluorescence anisotropy. (Polarisation of emitted light reports the rotation of a fluorescent probe.)
For series [2], the system named is PARP2 (mouse). Nature of the series: fluorescence anisotropy.
Series [3] has as its system PARP1 (human). Nature of the series: EMSA.
Series [4] has as its system PARP2 (mouse). Nature of the series: EMSA.
Setting [5] is: AP site at the U of primer S1 (UDG-generated).
Setting [6] is: AP site at the U of primer S1 (UDG-generated), midward-oriented.
Setting [7] is: AP site at the U of primer S3 (UDG-generated).
[8] abbreviates: AP site at the U of primer S3 (UDG-generated), outward-oriented.
[9] abbreviates: single-nt gap with 5'-dRP at the U of primer S1 (UDG + APE1).
Setting [10] is: single-nt gap with 5'-dRP at the U of primer S1 (UDG + APE1), midward-oriented.
Where [11] appears, read: single-nt gap with 5'-dRP at the U of primer S3 (UDG + APE1).
[12] abbreviates: single-nt gap with 5'-dRP at the U of primer S3 (UDG + APE1), outward-oriented.

For AP mid-DNA, the results for the Kd in series [1] (setting [5]) and in series [2] (setting [5]) were 23 nM and 690 nM, respectively.

As to AP mid-NCP, the results for the Kd in series [1] (setting [6]) and in series [2] (setting [6]) were 12 nM and 162 nM, respectively.

On to AP out-DNA, for which the Kd in series [1] (setting [7]) was 23 nM; in series [2] (setting [7]) it was 811 nM.

In the case of AP out-NCP, the Kd in series [1] (setting [8]) worked out at 7 nM; in series [2] (setting [8]), 160 nM; in series [3] (setting [8]) it was 61 nM; in series [4] (setting [8]) it was 130 nM.

As to gap mid-DNA, the Kd amounted to 25 nM in series [1] (setting [9]) and 145 nM in series [2] (setting [9]).

On to gap mid-NCP, for which the Kd in series [1] (setting [10]) is 14 nM; in series [2] (setting [10]), 128 nM.

Take gap out-DNA: the Kd turned out to be 29 nM in series [1] (setting [11]) and 58 nM in series [2] (setting [11]).

For gap out-NCP, the Kd in series [1] (setting [12]) was 10 nM; in series [2] (setting [12]), 14 nM; in series [3] (setting [12]), 38 nM; in series [4] (setting [12]), 57 nM.

In the case of native mid-DNA, the results for the Kd in series [1] and in series [2] were 14 nM and 608 nM, respectively.

On to native mid-NCP, for which the Kd turned out to be 11 nM in series [1] and 151 nM in series [2].

Turning to native out-DNA, the Kd in series [1] was 14 nM; in series [2] it was 839 nM.

Regarding native out-NCP, the Kd in series [1] is 14 nM; in series [2], 156 nM; in series [3], 65 nM; in series [4] it was 192 nM.
